This is an account of results in the domain aggregation screens of Martell et al. (2025).
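Note: 20 min heating vs room temperature control held 20 min.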

The nature of the series: soluble fraction after stress (log2 fold change); higher = more stays soluble; pooled small domains, quantitative proteomics. Conditions: stress: 75 degC.
Turning to “HMILNNAKINTELNSLAEFTQRSLDSNTSEIGFYDYKKISYIASFATMKTTNWNVIIRAPINEFMGTVN”, the “soluble fraction (log2)” value turned out to be 0.126.
With “HMILQTLSERVTETLRDWILHGHFKPGDKIEEVPIAERMGVSRTPVRAAFATLTNEGLIDHQPNRGYQVRV” the figure was -0.496; with “HMILSTNFFRHIVPKEYQTSYGTMKKWLTDHNVIGTNSIPQGIGYRIPTQGLSSTFSFKVVDVLPDR”, -0.986.
As for “HMIMDQTILRKQRELTDRLNRYRNEYYNHNKPSVSDEVYDRLFDELQSLEKETGVQMANSPTTTVG”, the figure is -0.0853; as for “HMIMGTITKRTNPSGAIVYRAQIRIKKAGYPDFSESRTFSKKAMAVEWLKLREAELEMHPELLFR”, -2.35; as for “HMIMHLNQIIRNKRLAAGLTQEALAQKVGVTAPAVSKWEKGISYPDITLLPILARNLNTDVNTLLDFSA”, -1.29.
With “HMIMNLNVLANNVRRLRTAQRLSQSALASKAGLSVPAIKNLENARNEPRVNTVQVIAHALEVRLQDLFAPT” the figure was -1.81; with “HMIMTEKEKKLLNRYIMHDTIHKLYHEQNKSMRWIADNLGINFRTVQKYLDMDSGEFQKYSESISNR”, -0.97; with “HMIMTIYEYIARNNPTGAKRVIESFGYVVTQPKKMGDNLRMLVAQEGEPALKAVVDLHPDKDLILEV”, -2.69.
Turning to “HMINAQETEIYRFLIEKANRLYSMVLGLKREELMTATRQFEEEVKHSSIHHLPKIYQAFSSYLELLERG”, the “soluble fraction (log2)” value is -1.2.
As for “HMINDKLQHLFSLFPAMDKELKRKGITRQILWVEYKKQYPLGFGRSQFNSYFAAWKAQVSPS”, the figure is -1.98; as for “HMINFLSKREIEVLRLVADGLSNRDVGQYLFISESTVKRHLSTIYEKLAVKSRTQAIDHARRADL”, -3.6.
As to “HMINGTITFYDDTTLKGELSSLDTKYLFIIPNGLVMPEKIAVSDIEYFNLDNGITLIQDGISKQTY”, the “soluble fraction (log2)” value was -1.09.
With “HMINLGDLEVGHTYHTRMPILQNDLKYSHKSPIQIVAEHSIVYGVRVYIGFLNEHRVLVTADDV” the figure was 0.0105.
With “HMINLRTALNNAGVMQKELSDILYMTPQDVNRRFSGVTKWKPLEKRAIMQFLEDRGFEYTEEQLF” the figure was -0.564.
As for “HMINLVPFELKFITAQVLDDIIKKIGINADTIILDINPKKIWVYAGEQELSDIQNIVKNVDVEDNI”, the figure is -1.71.
As for “HMINVLTPKQIEATTIAVKYGYYENPRTVSMRELSEISGIARSTLQEHLSKAEAALMILAAKSQL”, the “soluble fraction (log2)” value was -0.365.
As for “HMINVVDEVIKHLETNIISGFWAPGQKIDSEATLSKQLNVSRASIHTAIQQLIATGVLESFQGKGTFVRS”, the figure is -0.305.
As for “HMIPDGKWKEDPISDGQKNFINSLIEQAIDAGQDELGAEAKKYLASGEATKGNASAMIDKLKSAL”, the figure is 0.39.
As for “HMIPDMSLELAMSEQTSKGDLYGDLPNDKLALMFNAISKKVPHTDDHKRKMVAIQTILESRAS”, the figure is -0.415; as for “HMIPEGKWMEDPISEGQIKFIETLIKQAIDSGQDALGAEAKQYLSSGEATKGNASSMIDKLKDAL”, 0.433; as for “HMIPEILNGYTKWGDDEPFEDHAGPFYMKMMPSTGRHLSAFIPEQRHMNGGGFLHGGMLMSFADYALFVI”, 0.244.
As to “HMIPEKEISYMMPDGFMPKELKIIHITESGRKQIYSAAHKPLDLVNVKAPFVPNTKVQIYINDVPIEELKI”, the “soluble fraction (log2)” value was -1.01.
With “HMIPKDKQAWIALTYIYGVGRTTSMEILKKAQVGEEIRMKDLTEEEVTRIRNIIDKEYEVEGDLRRN” the figure was -0.252; with “HMIPNEKEAARWDALTAEHTAKLNALEGDALDKVGSHEDVSIKRAGVGDAAFREKILSRTHPDDLERALST”, -0.0132.
For the sequence “HMIQHFARKRRQLELAVQRLSGRMAETNGQVTADMQRLIQQVKALVAELSHVFSRAYLRRVLGGVALVIGS”, the “soluble fraction (log2)” value is -0.597.
As to “HMIQLTDAEFNELVTYIKKNYGINLIKKRLLIEARMYSVLAKHGFTSFTEYINLIKRDPAELNTMLNKLTT”, the “soluble fraction (log2)” value is -3.26.
As for “HMIQMRVKVPKNIAGGSLMGAHHFVKSALARTNPGGSTSNYKIQATDGTPLTLGDLTARQYDEVLIISG”, the figure is -0.668; as for “HMIQTKKVTFTVEPTVNFEKINISGIEFKINSGSSITAIYEKNSHNFDEVLDFLKQKGVKILDIVTED”, -0.251.
As for “HMIRILIVDDSAFMRKLLSDVFEEDKNFVVVDTARNGQDAVEKVKRLKPDLVTMDVEMPVMDGLTAVEIIM”, the “soluble fraction (log2)” value is -0.453.
With “HMIRSNLAEQAYAQLKALIHDFQLLPGDRFSENEMGTRLGVSRTPVREALFRLRNEGFLEVESKAGWYVK” the figure was -3.04; with “HMISAADLQTYLKGMDYPAGREDLVAHAQRNNAPESVITILQGFSDRTYRSAAEVSEEFGRE”, 0.495; with “HMISADSSKVDTLVQVYSNMKPIQAAQVFEKMDEDLVIEILSRMKKKNAADILNLIKTEKAQVFAEKYA”, -0.109.
As for “HMISAEPVGEDLFKVAFPFLGGSTVFEKTIEQFIEEHPSKRIDHIYTVPNPLRLKKADALIFYIITEEK”, the figure is -1.07; as for “HMISASDLQTYLKGMDYPARKEDLIVHAQRNNAPESVIAAIRQFSDRTYQSAADVSEEFGKI”, 0.602; as for “HMISDEELLVSTKKEIMSLATVLTKTDKKDDAIAIMKEYDPAANPNRIKDVNKAKELLERLQKLG”, -0.225.
With “HMISDISEIEAIIVEVLKVFPNQLQEYLDGKEKILSFFVGQVMQRTKGRANPSLVNEILKEKIKN”, the “soluble fraction (log2)” value is -1.22.
“HMISEAEGTILQLLKEADGTLPFTYKSDADEIKKVFGMSKKNFKRTLTELIEAKKIQLLDDAIVL”: the “soluble fraction (log2)” value was -0.632.
With “HMISEKEIKIIEDILARWNGKLTWDDFTSKVAKKLNLPSLSKFTLMGYPEIKQAFLTRKQTLK” the figure was -0.53; with “HMISENFVEAKILLTEDNRPKSLEILKDIIRQHDKVYSPLSLFLILDEDLEENKEIILEYFDLVLS”, -0.327; with “HMISESLLDEIPGLGETRRNSLLREFGSVAMIRKASAEEIASRVRGIGAEFAAAIHDFLQTH”, -0.446.
With “HMISFHEYLTQLLDEKGLTKAQVITDSNIQKNYGYQIFDGSKTPSRDKVIAIALAMQLTLDEANRLLHLSN” the figure was -1.75; with “HMISFTDLEHIEKMIENVLYTKTPLNLPPTDAKIRKIEHQIARRYGLNSESFGDEPRRFVVVYPNEERE”, -0.907.
Take “HMISKAQLFSEEELTELYRATGYQLENDPEIHREQFEALQAVRAKIEYAVPDVQEKLEQEQNLGQQ”: the “soluble fraction (log2)” value came to 0.512.
With “HMISKRFQVDEENSNNRVDIFLANNLDSISRGIVQQLILDGKVLVNGETVKRNHLLKTNDEVDISFEI” the figure was 0.349.
For the sequence “HMISRDPYDAGAIKRHFSASGLFSSKELAHYLGKSVSTAKNVLSDLQQQGIVEMVGQGPATKYRFI”, the “soluble fraction (log2)” value came out at 0.772.
As for “HMISSRDAAVIGLVENIQRAQLNAIDESSGFKHLMETYNLESKEIALLVGKSRSYVSNSLRLSK”, the figure is 0.124; as for “HMISTVFYVDVKGEVHHPGVYQMKAENRVKDLIEAAGGFTPLADDQKLNLAQLLEDQMVIVVPKKGEEV”, 0.243.
As for “HMISVTNRTGTGLNDVKVEVFPVGRQMVFSATVFRVESEATNRFSLGELRGSDGTPFNQRVHRPESI”, the “soluble fraction (log2)” value is -0.184.
With “HMITAEQENILFEKASDDISNNIINKGIWTKAYSQAGGDESKQKAIYIDLLVNYYKMLIKAGEEFEDI” the figure was -2.42.
